Measurements from paper PMC4546566 (Annals of neurology, 2015).

Key:
[1] = Aβ stable isotope labeling kinetics; format: in vivo, human; conditions: for FTR faster in cognitively normal amyloid positive group: in vivo
[2] = format: in vivo, human; conditions: 0.143 - 0.091

Substance | FTR faster in cognitively normal amyloid positive group [1] [%] | FTR (fractional turnover rate, irreversible loss) ([1]; compartmental model, CDR-SB = 0 (n=44), mean ± SD) [pools/h] | deposition rate constant into amyloid plaques [2] [pool/h]
Aβ38: endogenous soluble amyloid-beta isoform ending at residue 38, measured in human CSF | 22 | – | –
Aβ40: endogenous soluble amyloid-beta isoform ending at residue 40, measured in human CSF | 17 | – | –
Aβ42: endogenous soluble amyloid-beta isoform ending at residue 42, measured in human CSF | 57 | 0.104 ± 0.036 | 0.052
